Measured values: the supplement of paper PMC11246515
± gives the standard deviation of the averaged measurements.

Test: total protein half-life in vivo (active degradation + dilution); higher = more stable protein
[1] = E. coli NCM3722 delta-clpP delta-lon delta-hslV, growth: N-lim chemostat, doubling time 6 h
[2] = E. coli NCM3722 delta-clpP, growth: N-lim chemostat, doubling time 6 h
[3] = E. coli NCM3722 delta-hslV, growth: N-lim chemostat, doubling time 6 h
[4] = E. coli NCM3722 delta-lon, growth: N-lim chemostat, doubling time 6 h
[5] = E. coli NCM3722 delta-smpB, growth: N-lim chemostat, doubling time 6 h
[6] = wild type E. coli NCM3722, growth: C-lim chemostat, doubling time 3 h
[7] = wild type E. coli NCM3722, growth: C-lim chemostat, doubling time 6 h
[8] = wild type E. coli NCM3722, growth: C-lim chemostat, doubling time 12 h
[9] = wild type E. coli NCM3722, growth: N-lim chemostat, doubling time 6 h
[10] = wild type E. coli NCM3722, growth: N-lim chemostat, doubling time 12 h
[11] = wild type E. coli NCM3722, growth: P-lim chemostat, doubling time 6 h
[12] = wild type E. coli NCM3722, growth: P-lim chemostat, doubling time 12 h

Sequence	total protein half-life in vivo [1] [h]	total protein half-life in vivo [2] [h]	total protein half-life in vivo [3] [h]	total protein half-life in vivo [4] [h]	total protein half-life in vivo [5] [h]	total protein half-life in vivo [6] [h]	total protein half-life in vivo [7] [h]	total protein half-life in vivo [8] [h]	total protein half-life in vivo [9] [h]	total protein half-life in vivo [10] [h]	total protein half-life in vivo [11] [h]	total protein half-life in vivo [12] [h]
MSSTLREASKDTLQAKDKTYHYYSLPLAAKSLGDITRLPKSLKVLLENLLRWQDGNSVTEEDIHALAGWLKNAHADREIAYRPARVLMQDFTGVPAVVDLAAMREAVKRLGGDTAKVNPLSPVDLVIDHSVTVDRFGDDEAFEENVRLEMERNHERYVFLKWGKQAFSRFSVVPPGTGICHQVNLEYLGKAVWSELQDGEWIAYPDTLVGTDSHTTMINGLGVLGWGVGGIEAEAAMLGQPVSMLIPDVVGFKLTGKLREGITATDLVLTVTQMLRKHGVVGKFVEFYGDGLDSLPLADRATIANMSPEYGATCGFFPIDAVTLDYMRLSGRSEDQVELVEKYAKAQGMWRNPGDEPIFTSTLELDMNDVEASLAGPKRPQDRVALPDVPKAFAASNELEVNATHKDRQPVDYVMNGHQYQLPDGAVVIAAITSCTNTSNPSVLMAAGLLAKKAVTLGLKRQPWVKASLAPGSKVVSDYLAKAKLTPYLDELGFNLVGYGCTTCIGNSGPLPDPIETAIKKSDLTVGAVLSGNRNFEGRIHPLVKTNWLASPPLVVAYALAGNMNINLASEPIGHDRKGDPVYLKDIWPSAQEIARAVEQVSTEMFRKEYAEVFEGTAEWKGINVTRSDTYGWQEDSTYIRLSPFFDEMQATPAPVEDIHGARILAMLGDSVTTDHISPAGSIKPDSPAGRYLQGRGVERKDFNSYGSRRGNHEVMMRGTFANIRIRNEMVPGVEGGMTRHLPDSDVVSIYDAAMRYKQEQTPLAVIAGKEYGSGSSRDWAAKGPRLLGIRVVIAESFERIHRSNLIGMGILPLEFPQGVTRKTLGLTGEEKIDIGDLQNLQPGATVPVTLTRADGSQEVVPCRCRIDTATELTYYQNDGILHYVIRNMLK	5.26 ± 0.24	4.44 ± 0.1	4.73 ± 0.14	4.71 ± 0.15	4.362 ± 0.015	3.14 ± 0.26	5.47 ± 0.13	9.9 ± 0.64	4.65 ± 0.17	7.39 ± 0.19	5.81 ± 0.33	11 ± 0.17
MPKRTDIKSILILGAGPIVIGQACEFDYSGAQACKALREEGYRVILVNSNPATIMTDPEMADATYIEPIHWEVVRKIIEKERPDAVLPTMGGQTALNCALELERQGVLEEFGVTMIGATADAIDKAEDRRRFDVAMKKIGLETARSGIAHTMEEALAVAADVGFPCIIRPSFTMGGSGGGIAYNREEFEEICARGLDLSPTKELLIDESLIGWKEYEMEVVRDKNDNCIIVCSIENFDAMGIHTGDSITVAPAQTLTDKEYQIMRNASMAVLREIGVETGGSNVQFAVNPKNGRLIVIEMNPRVSRSSALASKATGFPIAKVAAKLAVGYTLDELMNDITGGRTPASFEPSIDYVVTKIPRFNFEKFAGANDRLTTQMKSVGEVMAIGRTQQESLQKALRGLEVGATGFDPKVSLDDPEALTKIRRELKDAGADRIWYIADAFRAGLSVDGVFNLTNIDRWFLVQIEELVRLEEKVAEVGITGLNADFLRQLKRKGFADARLAKLAGVREAEIRKLRDQYDLHPVYKRVDTCAAEFATDTAYMYSTYEEECEANPSTDREKIMVLGGGPNRIGQGIEFDYCCVHASLALREDGYETIMVNCNPETVSTDYDTSDRLYFEPVTLEDVLEIVRIEKPKGVIVQYGGQTPLKLARALEAAGVPVIGTSPDAIDRAEDRERFQHAVERLKLKQPANATVTAIEMAVEKAKEIGYPLVVRPSYVLGGRAMEIVYDEADLRRYFQTAVSVSNDAPVLLDHFLDDAVEVDVDAICDGEMVLIGGIMEHIEQAGVHSGDSACSLPAYTLSQEIQDVMRQQVQKLAFELQVRGLMNVQFAVKNNEVYLIEVNPRAARTVPFVSKATGVPLAKVAARVMAGKSLAEQGVTKEVIPPYYSVKEVVLPFNKFPGVDPLLGPEMRSTGEVMGVGRTFAEAFAKAQLGSNSTMKKHGRALLSVREGDKERVVDLAAKLLKQGFELDATHGTAIVLGEAGINPRLVNKVHEGRPHIQDRIKNGEYTYIINTTSGRRAIEDSRVIRRSALQYKVHYDTTLNGGFATAMALNADATEKVISVQEMHAQIK	5.02 ± 0.092	4.45 ± 0.4	4.581 ± 0.016	5 ± 0.33	4.81 ± 0.32	3.11 ± 0.25	5.75 ± 0.28	10.6 ± 0.13	4.65 ± 0.3	8.22 ± 0.41	6.2 ± 0.28	12.6 ± 0.28
MLNETPALAPDGQPYRLLTLRNNAGMVVTLMDWGATLLSARIPLSDGSVREALLGCASPECYQDQAAFLGASIGRYANRIANSRYTFDGETVTLSPSQGVNQLHGGPEGFDKRRWQIVNQNDRQVLFALSSDDGDQGFPGNLGATVQYRLTDDNRISITYRATVDKPCPVNMTNHVYFNLDGEQSDVRNHKLQILADEYLPVDEGGIPHDGLKSVAGTSFDFRSAKIIASEFLADDDQRKVKGYDHAFLLQAKGDGKKVAAHVWSADEKLQLKVYTTAPALQFYSGNFLGGTPSRGTEPYADWQGLALESEFLPDSPNHPEWPQPDCFLRPGEEYSSLTEYQFIAE [P0A9C3]	5.1 ± 0.083	4.67 ± 0.097	–	4.63 ± 0.11	4.275 ± 0.041	3.16 ± 0.33	6.76 ± 0.95	12.3 ± 1.5	4.71 ± 0.91	7.76 ± 0.98	6.38 ± 0.48	–
